{"source": "the supplement of paper PMC9112550", "about": "“Optimization of the antimicrobial peptide Bac7 by deep mutational scanning” (BMC Biology, 2022);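 also: peptides expressed intracellularly from a pBAD plasmid library in pooled LB shake-flask culture, induced with 0.3% L-arabinose, DNA abundance read by NGS, three biological replicates, DESeq2 with apeglm shrinkage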", "data": [{"tested_on": "Escherichia coli TOP10", "test": "shrunken log2 fold change of peptide-encoding DNA abundance (4.5 h post-induction vs induction); higher = less antimicrobial activity (less host growth inhibition)", "details": "time post-induction: 4.5 h; library: site-saturation at positions 5, 18, 19, 20", "values": [{"sequence": "RRIRGRPPRLPRPRPRPTQNPRP", "shrunken log2 fold change": 0.972}, {"sequence": "RRIRLRPPRLPRPRPRPHVRPRP", "shrunken log2 fold change": 0.0652}, {"sequence": "RRIRMRPPRLPRPRPRPDMTPRP", "shrunken log2 fold change": -0.05}, {"sequence": "RRIRGRPPRLPRPRPRPFDLPRP", "shrunken log2 fold change": -0.24}, {"sequence": "RRIRMRPPRLPRPRPRPSDHPRP", "shrunken log2 fold change": 0.386}, {"sequence": "RRIRARPPRLPRPRPRPHEDPRP", "shrunken log2 fold change": 0.627}, {"sequence": "RRIRDRPPRLPRPRPRPHEFPRP", "shrunken log2 fold change": 0.00812}, {"sequence": "RRIRWRPPRLPRPRPRPDEHPRP", "shrunken log2 fold change": 0.0519}, {"sequence": "RRIRNRPPRLPRPRPRPNDQPRP", "shrunken log2 fold change": -0.309}, {"sequence": "RRIRIRPPRLPRPRPRPMWIPRP", "shrunken log2 fold change": -0.208}, {"sequence": "RRIRCRPPRLPRPRPRPIAIPRP", "shrunken log2 fold change": -0.443}, {"sequence": "RRIRFRPPRLPRPRPRPHKNPRP", "shrunken log2 fold change": -0.389}, {"sequence": "RRIRQRPPRLPRPRPRPPLDPRP", "shrunken log2 fold change": 0.685}, {"sequence": "RRIRERPPRLPRPRPRPIKGPRP", "shrunken log2 fold change": -0.0123}, {"sequence": "RRIRFRPPRLPRPRPRPFNCPRP", "shrunken log2 fold change": -0.113}, {"sequence": "RRIRGRPPRLPRPRPRPMFMPRP", "shrunken log2 fold change": 0.0699}, {"sequence": "RRIRPRPPRLPRPRPRPMIAPRP", "shrunken log2 fold change": -0.0488}, {"sequence": "RRIRVRPPRLPRPRPRPIMLPRP", "shrunken log2 fold change": -0.122}, {"sequence": "RRIRIRPPRLPRPRPRPYKLPRP", "shrunken log2 fold change": -1.04}, {"sequence": "RRIRVRPPRLPRPRPRPYCKPRP", "shrunken log2 fold change": -1.15}, {"sequence": "RRIRKRPPRLPRPRPRPKFEPRP", "shrunken log2 fold change": -0.0585}, {"sequence": "RRIRYRPPRLPRPRPRPIIHPRP", "shrunken log2 fold change": -1.21}, {"sequence": "RRIRHRPPRLPRPRPRPFTHPRP", "shrunken log2 fold change": -0.0608}, {"sequence": "RRIRMRPPRLPRPRPRPMNTPRP", "shrunken log2 fold change": 0.206}, {"sequence": "RRIRRRPPRLPRPRPRPYANPRP", "shrunken log2 fold change": -0.0552}, {"sequence": "RRIRLRPPRLPRPRPRPEHIPRP", "shrunken log2 fold change": 0.0843}, {"sequence": "RRIRMRPPRLPRPRPRPGDKPRP", "shrunken log2 fold change": 0.9}, {"sequence": "RRIRFRPPRLPRPRPRPVFTPRP", "shrunken log2 fold change": -0.0271}, {"sequence": "RRIRNRPPRLPRPRPRPLVKPRP", "shrunken log2 fold change": -0.741}, {"sequence": "RRIRERPPRLPRPRPRPARNPRP", "shrunken log2 fold change": 0.194}, {"sequence": "RRIRHRPPRLPRPRPRPWCCPRP", "shrunken log2 fold change": -0.352}, {"sequence": "RRIRLRPPRLPRPRPRPYQDPRP", "shrunken log2 fold change": -0.106}, {"sequence": "RRIRRRPPRLPRPRPRPNWVPRP", "shrunken log2 fold change": 0.00352}, {"sequence": "RRIRYRPPRLPRPRPRPMGKPRP", "shrunken log2 fold change": -0.452}, {"sequence": "RRIRWRPPRLPRPRPRPETPPRP", "shrunken log2 fold change": 1.33}, {"sequence": "RRIRKRPPRLPRPRPRPPLCPRP", "shrunken log2 fold change": 0.668}, {"sequence": "RRIRRRPPRLPRPRPRPFHCPRP", "shrunken log2 fold change": 0.089}, {"sequence": "RRIRYRPPRLPRPRPRPHNRPRP", "shrunken log2 fold change": -0.245}, {"sequence": "RRIRWRPPRLPRPRPRPAAPPRP", "shrunken log2 fold change": 0.613}, {"sequence": "RRIRQRPPRLPRPRPRPIEGPRP", "shrunken log2 fold change": 0.0763}, {"sequence": "RRIRFRPPRLPRPRPRPSKWPRP", "shrunken log2 fold change": -0.273}, {"sequence": "RRIRIRPPRLPRPRPRPTKEPRP", "shrunken log2 fold change": 0.0462}, {"sequence": "RRIRCRPPRLPRPRPRPVLPPRP", "shrunken log2 fold change": 2}, {"sequence": "RRIRLRPPRLPRPRPRPAVMPRP", "shrunken log2 fold change": 0.113}, {"sequence": "RRIRMRPPRLPRPRPRPVLWPRP", "shrunken log2 fold change": 0.847}, {"sequence": "RRIRDRPPRLPRPRPRPSGFPRP", "shrunken log2 fold change": 0.029}, {"sequence": "RRIRNRPPRLPRPRPRPMCQPRP", "shrunken log2 fold change": -0.0153}, {"sequence": "RRIRHRPPRLPRPRPRPQRIPRP", "shrunken log2 fold change": -0.00331}, {"sequence": "RRIRDRPPRLPRPRPRPVPAPRP", "shrunken log2 fold change": 0.341}, {"sequence": "RRIRMRPPRLPRPRPRPQEDPRP", "shrunken log2 fold change": -0.0231}, {"sequence": "RRIRIRPPRLPRPRPRPHIEPRP", "shrunken log2 fold change": -0.0878}, {"sequence": "RRIRCRPPRLPRPRPRPYNNPRP", "shrunken log2 fold change": -1.23}, {"sequence": "RRIRDRPPRLPRPRPRPYTEPRP", "shrunken log2 fold change": -0.0346}, {"sequence": "RRIRFRPPRLPRPRPRPIKEPRP", "shrunken log2 fold change": -0.113}, {"sequence": "RRIRTRPPRLPRPRPRPWVGPRP", "shrunken log2 fold change": -0.155}, {"sequence": "RRIRGRPPRLPRPRPRPAKIPRP", "shrunken log2 fold change": 0.226}, {"sequence": "RRIRYRPPRLPRPRPRPGTKPRP", "shrunken log2 fold change": -0.0505}, {"sequence": "RRIRPRPPRLPRPRPRPGPTPRP", "shrunken log2 fold change": 0.0907}, {"sequence": "RRIRNRPPRLPRPRPRPLNGPRP", "shrunken log2 fold change": -0.0206}, {"sequence": "RRIRFRPPRLPRPRPRPQEAPRP", "shrunken log2 fold change": 0.201}, {"sequence": "RRIRVRPPRLPRPRPRPSSPPRP", "shrunken log2 fold change": -0.269}, {"sequence": "RRIRMRPPRLPRPRPRPCLMPRP", "shrunken log2 fold change": 0.0359}, {"sequence": "RRIRLRPPRLPRPRPRPQMMPRP", "shrunken log2 fold change": -0.371}, {"sequence": "RRIRSRPPRLPRPRPRPQSYPRP", "shrunken log2 fold change": 0.107}, {"sequence": "RRIRIRPPRLPRPRPRPDKKPRP", "shrunken log2 fold change": -0.0638}, {"sequence": "RRIRSRPPRLPRPRPRPDYSPRP", "shrunken log2 fold change": -0.464}, {"sequence": "RRIRARPPRLPRPRPRPNTKPRP", "shrunken log2 fold change": -0.124}, {"sequence": "RRIRLRPPRLPRPRPRPTDEPRP", "shrunken log2 fold change": -0.111}, {"sequence": "RRIRDRPPRLPRPRPRPWNQPRP", "shrunken log2 fold change": -0.0409}, {"sequence": "RRIRLRPPRLPRPRPRPGNLPRP", "shrunken log2 fold change": -0.137}, {"sequence": "RRIRKRPPRLPRPRPRPCRPPRP", "shrunken log2 fold change": 0.0439}, {"sequence": "RRIRWRPPRLPRPRPRPYRPPRP", "shrunken log2 fold change": -0.573}, {"sequence": "RRIRLRPPRLPRPRPRPNHNPRP", "shrunken log2 fold change": -0.726}, {"sequence": "RRIRRRPPRLPRPRPRPHQEPRP", "shrunken log2 fold change": -0.0374}, {"sequence": "RRIRERPPRLPRPRPRPVYAPRP", "shrunken log2 fold change": -0.288}, {"sequence": "RRIRVRPPRLPRPRPRPCIYPRP", "shrunken log2 fold change": -0.533}, {"sequence": "RRIRIRPPRLPRPRPRPMDGPRP", "shrunken log2 fold change": -0.108}, {"sequence": "RRIRRRPPRLPRPRPRPNTRPRP", "shrunken log2 fold change": 0.162}, {"sequence": "RRIRIRPPRLPRPRPRPILRPRP", "shrunken log2 fold change": -0.484}, {"sequence": "RRIRVRPPRLPRPRPRPWRVPRP", "shrunken log2 fold change": 0.435}, {"sequence": "RRIRPRPPRLPRPRPRPMNRPRP", "shrunken log2 fold change": -0.118}, {"sequence": "RRIRSRPPRLPRPRPRPEYDPRP", "shrunken log2 fold change": 0.0801}, {"sequence": "RRIRKRPPRLPRPRPRPCYEPRP", "shrunken log2 fold change": -0.311}, {"sequence": "RRIRARPPRLPRPRPRPTSTPRP", "shrunken log2 fold change": 0.0502}, {"sequence": "RRIRWRPPRLPRPRPRPCHLPRP", "shrunken log2 fold change": -0.211}, {"sequence": "RRIRSRPPRLPRPRPRPDERPRP", "shrunken log2 fold change": 0.1}, {"sequence": "RRIRPRPPRLPRPRPRPINDPRP", "shrunken log2 fold change": -0.178}, {"sequence": "RRIRHRPPRLPRPRPRPQKSPRP", "shrunken log2 fold change": -0.138}, {"sequence": "RRIRCRPPRLPRPRPRPRHMPRP", "shrunken log2 fold change": -0.185}, {"sequence": "RRIRGRPPRLPRPRPRPHWCPRP", "shrunken log2 fold change": 0.00693}, {"sequence": "RRIRWRPPRLPRPRPRPWAQPRP", "shrunken log2 fold change": -0.381}]}]}
